Laboratory results reported in patent publication US20110142842A1 (MEDINNOVA, published 2011).

Target: HLA-A*0201 (human, UniProt A*02:01)
Test: REVEAL MHC binding assay (ProImmune)

Binder | % Pass/fail control
LLIILLAEV [Peptide ID 68 LLIILLAEV (CD53)] | 99.2 % of pass/fail control
LLLQVSSRV [Peptide ID 36 LLLQVSSRV (CD64)] | 180 % of pass/fail control
GLADVAVGA [Peptide ID 64 GLADVAVGA (CD11a)] | 206 % of pass/fail control
SMEEAKQLV [Peptide ID 71 SMEEAKQLV (MPO)] | 169 % of pass/fail control
LLLLLIFIV [Peptide ID 58 LLLLLIFIV (CD11a)] | 6.4 % of pass/fail control
LLEGNLVTL [Peptide ID 76 LLEGNLVTL (CD64)] | 173 % of pass/fail control
KLMSPKLYV [Peptide ID 55 KLMSPKLYV (CD19)] | 232 % of pass/fail control
YLRPGQAAA [Peptide ID 52 YLRPGQAAA (CD18)] | 125 % of pass/fail control
GLMATPAKL [Peptide ID 77 GLMATPAKL (MPO)] | 218 % of pass/fail control
SLFEGIYTI [Peptide ID 6 SLFEGIYTI (FLT3)] | 183 % of pass/fail control
SMSEEVTYA [Peptide ID 56 SMSEEVTYA (CLL-1)] | 158 % of pass/fail control
ALASVLLAL [Peptide ID 73 ALASVLLAL (PR3)] | 139 % of pass/fail control
FLQDTFPQQ [Peptide ID 70 FLQDTFPQQ (CD127)] | 49.8 % of pass/fail control
IMSDSNYVV [Peptide ID 65 IMSDSNYVV (FLT3)] | 220 % of pass/fail control
YLIFCLCSL [Peptide ID 50 YLIFCLCSL (CD19)] | 71.2 % of pass/fail control
LLLSGAARA [Peptide ID 51 LLLSGAARA (PR3)] | 178 % of pass/fail control
AIWLFIFNV [Peptide ID 80 AIWLFIFNV (CD19)] | 199 % of pass/fail control
LLIHNNFGV [Peptide ID 42 LLIHNNFGV (CD53)] | 191 % of pass/fail control
WLQAQKVQV [Peptide ID 63 WLQAQKVQV (TdT)] | 190 % of pass/fail control
VLIGILLLV [Peptide ID 35 VLIGILLLV (CD18)] | 117 % of pass/fail control
YLAVGIMFL [Peptide ID 5 YLAVGIMFL (CD64)] | 155 % of pass/fail control
LLLTISLLV [Peptide ID 81 LLLTISLLV (CD52)] | 250 % of pass/fail control
FLDCQIHRV [Peptide ID 7 FLDCQIHRV (CD127)] | 224 % of pass/fail control
VLQELNVTV [Peptide ID 34 VLQELNVTV (PR3)] | 170 % of pass/fail control
RLYQFLLDL [Peptide ID 66 RLYQFLLDL (PU.1)] | 234 % of pass/fail control

Binder | % Pass/fail control
EMDEELHYA [Peptide ID 54 EMDEELHYA (CD33)] | 117 % of pass/fail control
ILTALFLRV [Peptide ID 61 ILTALFLRV (TCR_TV)] | 159 % of pass/fail control
KLLLALAGV [Peptide ID 67 KLLLALAGV (MPO)] | 216 % of pass/fail control
LMIPAGIYA [Peptide ID 40 LMIPAGIYA (CD20)] | 142 % of pass/fail control
ALARGLPGA [Peptide ID 53 ALARGLPGA (CD7)] | 215 % of pass/fail control
FLYIGIITI [Peptide ID 4 FLYIGIITI (CD53)] | 136 % of pass/fail control
DMKDSIWWV [Peptide ID 37 DMKDSIWWV (PU.1)] | 131 % of pass/fail control
VLFHNLPSL [Peptide ID 49 VLFHNLPSL (CD53)] | 216 % of pass/fail control
VLTPAQLNV [Peptide ID 44 VLTPAQLNV (MPO)] | 175 % of pass/fail control
HLYGSNASL [Peptide ID 38 HLYGSNASL (CD11a)] | 135 % of pass/fail control
TLPQLFLKV [Peptide ID 72 TLPQLFLKV (FLT3)] | 182 % of pass/fail control
YISRDTCIV [Peptide ID 69 YISRDTCIV (HA-2)] | 133 % of pass/fail control
KMAEAYSEI [Peptide ID 46 KMAEAYSEI (TCR_TV)] | 200 % of pass/fail control
LLAEVTLAI [Peptide ID 47 LLAEVTLAI (CD53)] | 199 % of pass/fail control
RLFEQVMRI [Peptide ID 43 RLFEQVMRI (MPO)] | 192 % of pass/fail control
GMGWAAFNL [Peptide ID 45 GMGWAAFNL (CD50)] | 193 % of pass/fail control
ELLDVSWLI [Peptide ID 74 ELLDVSWLI (TdT)] | 220 % of pass/fail control
LLRTGGWKV [Peptide ID 39 LLRTGGWKV (CD19)] | 124 % of pass/fail control
FMQPLFLVA [Peptide ID 62 FMQPLFLVA (HA-1)] | 215 % of pass/fail control
SICEGTVEV [Peptide ID 59 SICEGTVEV (CD5)] | 130 % of pass/fail control
NLEEDAYWV [Peptide ID 57 NLEEDAYWV (CD11a)] | 64.9 % of pass/fail control
GLLSPQAQV [Peptide ID 33 GLLSPQAQV (FLT3)] | 170 % of pass/fail control
GLYQGLSTA [Peptide ID 41 GLYQGLSTA (TCR_TV)] | 107 % of pass/fail control
FIYGVILTA [Peptide ID 60 FIYGVILTA (TCR_TV)] | 149 % of pass/fail control
ILYPINILI [Peptide ID 48 ILYPINILI (CD11a)] | 214 % of pass/fail control
